B1: TPR t1 (parent)
chain: GACCAAUCUGCCCUCAGAGCUCGAGAACAUCUUCGGAUGCAGAGGAGGCAGGCUUCGGUGGCGCGAUAGCGCCAACGUCCUCAACCUCCAAUGCAUCCCACCACAUGAUGAUGCCUGAAGAGCCUUGGUUUUUUG

Variants of: B1
Experiment: polymerase ribozyme fitness, log enrichment relative to wild type (log ratio); higher = more active; in vitro selection for triplet polymerase activity
Outline: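 Libraries of mutants in each subunit of a heterodimeric triplet polymerase ribozyme were generated by PCR and transcribed. In triplicate, each went through one in vitro selection round: annealing with biotinylated primer, partner subunit and triplets; frozen incubation at −7 °C; gel excision of extended constructs; streptavidin-bead capture; RT-PCR. Fitness, taken from Illumina sequencing of input and output libraries, is the logarithm of a genotype's enrichment over wild-type enrichment, averaged across replicates with inverse-variance weights. The logarithm is base 2, and genotypes needed ≥10 input reads and ≥1 read per output to be kept.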

Row | Variant | polymerase ribozyme fitness (log ratio)
1 | C12A C49A C82A | -1.3
2 | C12G G71C A105G U125A | -4.36
3 | C12A G52A C73U A91G | -2.04
4 | C12A C56A C115U G120A C123A | -1.84
5 | C12A C53U | -0.724
6 | C12A C72A | 0.329
7 | C12A C82A | -0.699
8 | C12A C15U G69A G93U U109G | -6.39
9 | C12A G42C C73A C80U A118G | -3.44
10 | C12G G47C C53U C56U G113A A118C | -5.05
11 | C12A G127U | -1.39
12 | C12U A83C G93A | -0.192
13 | C12U A46U G51U G69U A74U | -3.04
14 | C12A G17U C20A G42A G45U A90G C123A | -4.53
15 | C12A G19U G57U | -3.2
16 | C11U U106C | -0.678
17 | C11U U59C G93A | -1.49
18 | C12A C15U G71U A121C G127U | 0.118
19 | C12U A84U U131G | -0.996
20 | C12U C70A C88G U129C | -2.57
21 | C12G C15G G47C C82G | -4.81
22 | C12G C94G A105C | -4.19
23 | C12U A46C A75U | -0.187
24 | C12A G19C C85U A91U G122U | -3.66

Row | Variant | polymerase ribozyme fitness (log ratio)
25 | C12G G61C C104U C115G U133C | -5.69
26 | C12G C104U G128C U133A | -0.738
27 | C12U C15A A37C G52U U116G | -3.09
28 | C12G G48A G93A | -1.44
29 | C12A A27G C34G G61U A118C C123G | -8.42
30 | C12U A50G C56A C85G | -1.73
31 | C12G A46C C53A C104A C123U | -1.14
32 | C12A A18C G77C A121U | -0.381
33 | C12G C13A A24G U106G C124A | -1.63
34 | C12U C20A A75C C114A G117U | -5.53
35 | C12A C40U C82G U96C C97U | -6.18
36 | C12U A46U A121C | -0.0492
37 | C11U U96G | -1.1
38 | C12A C22A A26C G120U | -4.36
39 | C12U C20U A91U U116G | -4.44
40 | C12G A26U G77A | -2.58
41 | C12G G117C U126G | -3.28
42 | C12G G39U G61U | 0.0718
43 | C12G C98A | -4.17
44 | C12U A26C G45C G61C A75C C82A | -6.28
45 | C12A A75U A111C | 0.286
46 | C12A G17U A46G C80G A84G C115A | -4.53
47 | C12G G113U | -3.38
48 | C12U A27G G69A C88A U125G | -3.8

Row | Variant | polymerase ribozyme fitness (log ratio)
49 | C12A G17U U96A G120U | -1.6
50 | C12G G47U | -1.82
51 | C12U C56A U92G C101G A121G | -3.35
52 | C12G C28G A37U G110U | 0.364
53 | C12A C62A C98A | -6.54
54 | C12G A41U G44C C64U C82G G113U | -5.32
55 | C12G C22U | -3.18
56 | C12U A41C G60C G128C | -3.6
57 | C12G G61A G128U | -1.84
58 | C12G A37C G60C A83U A91C G120U | -0.68
59 | C12U A18C C62U | -2.39
60 | C12G G36A C94A | -3.18
61 | C12G C53U G93C | -0.482
62 | C12U A16U A66C A105C C124G | -5.31
63 | C12G G63U A66G U109A A119U G127U | -5.43
64 | C12G C79A A91C | -2.84
65 | C12U A50U C56G | -1.24
66 | C12A A24C C97U | -7.95
67 | C12A A24G A41C A43C A46G C53G | -4.67
68 | C12A U14G G17A C20A C94A | -3.13
69 | C12U C72G C102A | -2.37
70 | C12G C115U U133A | -0.348
71 | C12U A75G U92A | -2.45
72 | C12A G47A C72G G93A | -4.15

Row | Variant | polymerase ribozyme fitness (log ratio)
73 | C12G A43U A75U C124G | 0.348
74 | C12G C28G A37U C72U G110U | -0.76
75 | C12U A16G U106A | 0.278
76 | C12U A16C C73A A83C | 0.284
77 | C12A C123A | 0.369
78 | C12A C62G U133G | -1.75
79 | C12G C22U U32G G69U C72G C102A A111U G122U | -5.99
80 | C11U G122A | -1.12
81 | C12A C15A | -3.39
82 | C12A G45U G51C G52U U59C C123G | -5.71
83 | C12U C20A A74U G128A | -5.15
84 | C11U U33A | -4.31
85 | C12U C62G | -1.57
86 | C12U A26G C56U G69U G117A U125G | -4.97
87 | C12A C64U A90C | -2.08
88 | C12G C98U U133G | -1.82
89 | C12G A43U U92G C104A G117U A118U | -5.1
90 | C12A G36U | -1.6
91 | C12A G36C | -1.69
92 | C11U U59A A91G A118U | -1.98
93 | C12G A46U C82G | -1.75
94 | C12G C86G C89G C104U | -1.35
95 | C12U A18U C40U U106C C114G | -2.23
96 | C12U A16U C22G U38G G52C A111U | -3.72

Row | Variant | polymerase ribozyme fitness (log ratio)
97 | C12G A119U | 0.00185
98 | C12A A18G C40U | -4.84
99 | C12A A50C C53U A74C | -0.606
100 | C12G C64A | -6.46
101 | C12A G110A C123U | -1.84
102 | C12G C15U G48A G61A U81G C123U | -2.3
103 | C12G G36U G61U A111C | 0.246
104 | C12A A18C U112C C124U | -0.619
105 | C12G G110U U130A | -1.34
106 | C12U C53A G58C A119U | -0.505
107 | C12G C15U C31A G44A G47A G63C A84U G110C | -6.78
108 | C12A A41U A43U C104U U129G | -4.67
109 | C12A C20A G113U C115U U131A | -3.38
110 | C12G G120A | 1.87
111 | C12G U59G A90G G113A | -2.53
112 | C12G A74U C80U | -1.1
113 | C12A C70U | -0.454
114 | C12A C70G | -2.78
115 | C12G G69C C72U A90U U116G | -6.29
116 | C12A G57U G71U | -0.629
117 | C12U A16C G42U U78A A121C | -0.175
118 | C12G A27G G39C | -3.18
119 | C12U C13U C70U G71C U96A U112G U131C | -4
120 | C12A C88U G110C | -4.61

Row | Variant | polymerase ribozyme fitness (log ratio)
121 | C12G A121U | 1.78
122 | C12A G44A C72G A100U | -2.22
123 | C12G G45U C72A G127A | -2.17
124 | C12G C64A U133A | -5.1
125 | C12U C15U C49A C101U U133G | -1.18
126 | C12A G71U | -0.821
127 | C12U C79A | -0.645
128 | C12U C79G | -1.07
129 | C12U A46U G51U G60A | -3.42
130 | C12A C40U A111C U131A | -0.623
131 | C12A C40U A91C | -3.09
132 | C12G G42A | -1.36
133 | C11U U78C U106G | -2.03
134 | C12A G117C A121C U132A | -5.13
135 | C12G U14A A26U C72U A90G C123A | -2.58
136 | C12G C56U | -0.0119
137 | C12A C34G G122U | -5.34
138 | C12G G36C A66U C85U C86A | -3.38
139 | C12G A26U C114A | -6.59
140 | C12A A37U A105G G122A | -3.74
141 | C12G G48U C62U | -1
142 | C12A G19U G42U C70A U92A U112C U129G | -5.98
143 | C12A C88U U109A C114A U133C | -6.51
144 | C12A A46U G47C C124G | -0.295

Row | Variant | polymerase ribozyme fitness (log ratio)
145 | C12G U78A G93A C124G | 0.89
146 | C12A C70A U92A | -5.67
147 | C12A C28U C86U C88U C101A A111C | -7.09
148 | C12A A26U G61A U131G | -4.35
149 | C12G G69U C115A | 0.211
150 | C12G G36C G58A | -1.29
151 | C12A A29U C86A | -2.52
152 | C12G G47U U87G U116A C124A | -1.26
153 | C12U C53A G58C C82G G128A | -2.46
154 | C12G U21A G77C A84U | -1.73
155 | C12A G63C A111U | -4.83
156 | C12A C22G A27U | -4.16
157 | C12G G51C G71A | -6.1
158 | C12G C40U | -1.51
159 | C12G C34U | -3.31
160 | C12G C34A | -2.33
161 | C12U C72G G117C A119U | -1
162 | C12G G19A C20U C98U | -3.29
163 | C12U A68G | -1.94
164 | C12G G60A C115G | -4.95
165 | C12U C20U A43U C72U C82A U112A C114G | -2.38
166 | C12A C22U U78C A121U | -2.5
167 | C12G G42C C70A U78A A91U | -5.9
